The subject of experiment [1] is average virtual NOD mouse. The experiment is described as follows: Simulation of therapy protocols in the average virtual NOD mouse (computer model of type 1 diabetes). The settings on record: IL-10; Pennline 1994 protocol; at 28 wks; expectation from published data. From the text: One application of a NOD mouse type 1 diabetes model is to improve understanding of type 1 diabetes pathogenesis in the NOD mouse. Model development therefore focused on islet β cell autoimmunity and tolerance, as well as related mechanisms and interventions. To provide for general immunologic function and not only progression to diabetes, the development effort included representation of several NOD mouse phenotypes. The first phenotype was an average diabetic virtual mouse. […] Typically, a simulation of the average virtual mouse concludes shortly after diabetes diagnosis, which is consistent with post-diabetic sacrifice of NOD mice in the laboratory. […] Additional virtual mice, each with different clinical behaviors and/or underlying pathophysiologies, have also been generated. Similarly, development of modals of type 1 diabetes in other mammals, such as humans, can include the development of various virtual patients representing normal animals or animals having varying degrees of severity or progression of type 1 diabetes.
Because diabetes is typically assessed by measuring blood or urinary glucose, blood glucose levels were represented in the model's clinical read-out. Hyperglycemia (a diabetes indicator) was defined as a glucose level in excess of a commonly used standard (e.g., 200, 250, 300, 350 mg/dl). […]

The next experiment concerns NOD mouse. The following applies: cited from earlier work.

B1: IL-10: exogenous recombinant human IL-10 (protein, UniProt P22301 19-178, looked up)
Interleukin-10: SPGQGTQSENSCTHFPGNLPNMLRDLRDAFSRVKTFFQMKDQLDNLLLKESLLEDFKGYLGCQALSEMIQFYLEEVMPQAENQDPDIKAHVNSLGENLKTLRLRLRRCHRFLPCENKSKAVEQVKNAFNKLQEKGIYKAMSEFDIFINYIEAYMTMKIRN
In the case of B1, the “Expected virtual mouse outcome” value in experiment [1] is reported as “No diabetes at 28 wks”. Also, in the experiment with NOD mouse (IL-10, Pennline 1994, Rx 9-24 wks, 1 μg recombinant human IL-10 daily, 15 wks, at 28 wks, vs 85% control), the Incidence is on record as 25% vs. 85% control at 28 wks. In addition, in the experiment with NOD mouse (IL-10, Pennline 1994), the Insulitis entry is reported as “Reduced severity of insulitis”. Also, in the experiment with NOD mouse (IL-10 delivered in various ways), the Disease progression result is “protect against disease progression”.

Values taken from patent US20070071681A1, “Apparatus and method for computer modeling type 1 diabetes” (Entelos, Inc., priority 2005, published 2007).
